Results on two molecules are retold here after paper PMC2607196 (Molecular cell, 2008).

The chains are these.
B1: Leukemia Inhibitory Factor Receptor LIF-R (D1-D5) (domain or fragment, human)
chain: DLKCVTNNLQVWNCSWKAPSGTGRGTDYEVCIENRSRSCYQLEKTSIKIPALSHGDYEITINSLHDFGSSTSKFTLNEQNVSLIPDTPEILNLSADFSTSTLYLKWNDRGSVFPHRSNVIWEIKVLRKESMELVKLVTHNTTLNGKDTLHHWSWASDMPLECAIHFVEIRCYIDNLHFSGLEEWSDWSPVKNISWIPDSQTKVFPQDKVILVGSDITFCCVSQEKVLSALIGHTNCPLIHLDGENVAIKIRNISVSASSGTNVVFTTEDNIFGTVIFAGYPPDTPQQLNCETHDLKEIICSWNPGRVTALVGPRATSYTLVESFSGKYVRLKRAEAPTNESYQLLFQMLPNQEIYNFTLNAHNPLGRSQSTILVNITEKVYPHTPTSFKVKDINSTAVKLSWHLPGNFAKINFLCEIEIKKSNSVQEQRNVTIKGVENSSYLVALDKLNPYTLYTFRIRCSTETFWKWSKWSNKKQHLTTEAS
B2: Ciliary Neurotrophic Factor (CNTF) (ligand, human, UniProt P26441 1-200, looked up)
chain: MAFTEHSPLTPHRRDLCSRSIWLARKIRSDLTALTESYVKHQGLNKNINLDSADGMPVASTDQWSELTEAERLQENLQAYRTFHVLLARLLEDQQVHFTPTEGDFHQAIHTLLLQVAAFAYQIEELMILLEYKIPRNEADGMPINVGDGGLFEKKLWGLKVLQELSQWTVRSIHDLRFISSHQTGIPARGSHYIANNKKM

For test [1], the target named is T1, gp130/CNTF-Rα/CNTF ternary complex (human, UniProt P26441 1-200; P40189 23-619).
T1 chain 1: B2 chain
T1 chain 2: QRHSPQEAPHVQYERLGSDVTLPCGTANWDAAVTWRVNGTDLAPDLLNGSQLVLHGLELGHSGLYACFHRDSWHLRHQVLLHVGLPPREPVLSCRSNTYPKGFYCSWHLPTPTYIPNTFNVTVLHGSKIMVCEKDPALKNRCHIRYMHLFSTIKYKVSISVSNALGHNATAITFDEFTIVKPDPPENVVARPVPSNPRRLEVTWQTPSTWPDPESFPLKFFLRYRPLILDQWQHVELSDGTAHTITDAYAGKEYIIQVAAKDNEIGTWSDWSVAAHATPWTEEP
T1 chain 3: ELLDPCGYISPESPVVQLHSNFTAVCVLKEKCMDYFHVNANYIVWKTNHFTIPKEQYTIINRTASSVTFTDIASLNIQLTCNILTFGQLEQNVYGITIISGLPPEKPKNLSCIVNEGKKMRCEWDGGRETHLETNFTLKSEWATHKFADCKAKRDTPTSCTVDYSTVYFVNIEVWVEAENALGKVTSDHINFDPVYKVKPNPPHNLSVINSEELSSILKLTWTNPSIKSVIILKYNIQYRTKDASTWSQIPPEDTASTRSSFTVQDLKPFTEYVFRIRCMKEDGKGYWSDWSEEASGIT
As to the kind of experiment: ITC. (In general: ITC needs no label: the signal is the heat of the interaction.)

For test [2], the target named is B1. As to the kind of experiment: ITC.

What is called stoichiometry N is a count of units in the complex or per binding partner.

On to B1, for which the “stoichiometry N” value in test [1] was found to be 1.
B2: the binding result in test [2] is “binds”.
